Reference: PMC5007037

Target: FcαRI (CD89) (human (endogenous in primary monocytes)) (UniProt P24071)
UniProt P24071, sequence (P24071 22-287): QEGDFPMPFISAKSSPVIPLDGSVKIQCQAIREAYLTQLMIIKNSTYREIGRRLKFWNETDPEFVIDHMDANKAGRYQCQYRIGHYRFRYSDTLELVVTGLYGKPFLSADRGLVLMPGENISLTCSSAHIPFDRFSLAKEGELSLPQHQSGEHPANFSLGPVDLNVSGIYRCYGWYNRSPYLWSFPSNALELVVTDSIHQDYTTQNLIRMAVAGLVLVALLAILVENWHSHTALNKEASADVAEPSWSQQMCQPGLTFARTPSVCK

With CH31 dIgA2 (antibody) the percent blocking of IgA-mediated phagocytosis of 0.2 μm ConSgp140-conjugated beads by primary monocytes pre-incubated with 5 μg/ml anti-human CD89 mAb (MIP8a) was 91.5% and the percent blocking of IgA-mediated phagocytosis of ConSgp140CFI-conjugated 1 μm beads by primary monocytes pre-incubated with anti-human CD89 mAb (MIP8a) at 1, 5 and 25 μg/ml (70%, 74%, 78%) was 78%.
